From US20170121318, “USE OF SMALL MOLECULE INHIBITORS TO KLF10 FOR MODULATION OF T REGULATORY CELLS AND CANCER IMMUNOTHERAPY” (THE BRIGHAM AND WOMEN'S HOSPITAL, INC., published 2017)

Molecular target: KLF10 (TIEG1) (UniProt Q13118 Q13118:1-480)
Assay: EMSA; 100 ng protein, 5 fmol probe, 5 mM MgCl2, poly(dI-dC), 0.05% NP-40, room temperature; binding inhibited by compounds #48, #48-15, #15-09
Settings: tags: GST fusion (GST-KLF10); Novus Biologicals; label: 3' biotin
Experimental: The identified small molecule compounds were next examined for effects on KLF10 DNA-protein binding.
KLF10 recombinant protein was obtained from Novus Biologicals. […] End-labeled oligos (1 μmol/L) were annealed in a buffer system with 10 mM Tris, 50 mM NaCl, pH 8.0 by heating at 95° C. for 5 min, then slowly cooled to 65° C. for 30 min incubation, and cooled to room temperature. […] Compounds were incubated with KLF10 in a reaction system for 4 hrs at room temperature, and then Biotin-labeled probes were added for a 1 hr incubation.

KLF10 (TIEG1), sequence (Q13118 whole entry, one chain of several): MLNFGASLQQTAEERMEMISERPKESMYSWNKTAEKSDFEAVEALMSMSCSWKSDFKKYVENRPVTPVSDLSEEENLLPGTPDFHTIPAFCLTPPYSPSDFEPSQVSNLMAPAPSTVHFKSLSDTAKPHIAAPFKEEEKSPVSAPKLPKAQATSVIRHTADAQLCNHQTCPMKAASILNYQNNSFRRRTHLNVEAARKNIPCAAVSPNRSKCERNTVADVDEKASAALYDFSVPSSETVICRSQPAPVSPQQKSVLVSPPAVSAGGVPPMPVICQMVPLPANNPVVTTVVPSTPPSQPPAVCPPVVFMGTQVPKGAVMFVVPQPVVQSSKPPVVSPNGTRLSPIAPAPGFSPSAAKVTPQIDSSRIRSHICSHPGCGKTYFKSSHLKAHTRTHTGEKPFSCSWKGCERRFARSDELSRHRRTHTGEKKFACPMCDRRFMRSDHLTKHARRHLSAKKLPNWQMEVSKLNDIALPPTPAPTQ

B1: KLF10 consensus DNA-binding sequence (dsDNA)
DNA 1: GCAGTGAAAAGGGGGTGTGTCAGGATGC
DNA 2: GCATCCTGACACACCCCCTTTTCACTGC
  binding result: binds
